Results from patent publication US20230348573A1 (KEIO UNIVERSITY, published 2023).

Experiments:
Assay in all cases: cell-based or functional assay
[1] = molecular target: spike protein of SARS-CoV-2 δ strain on pseudovirus (SARS-CoV-2 (δ strain))
[2] = molecular target: spike protein of SARS-CoV-2 B.1.1.482 strain on pseudovirus (SARS-CoV-2 (B.1.1.482 strain))
[3] = molecular target: spike protein of SARS-CoV-2 β strain on pseudovirus (SARS-CoV-2 (β strain))
[4] = molecular target: spike protein of SARS-CoV-2 γ strain on pseudovirus (SARS-CoV-2 (γ strain))
[5] = molecular target: spike protein of SARS-CoV-2 α strain on pseudovirus (SARS-CoV-2 (α strain))

| Binder | IC50 of pseudovirus infection (luciferase) [1] [ng/mL] | IC50 of pseudovirus infection (luciferase) [2] [ng/mL] | IC50 of pseudovirus infection (luciferase) [3] [ng/mL] | IC50 of pseudovirus infection (luciferase) [4] [ng/mL] | IC50 of pseudovirus infection (luciferase) [5] [ng/mL] |
| --- | --- | --- | --- | --- | --- |
| Ab816 (antibody, V domains shown) VH: QVQLVQSGAEVKKPGESLMISCKASGYNFRNYWIAWVRQMPGKGLEWMGIIHPGDSDIRYRPSLQGHVTISADKSITTAYLQWGSLKASDTAMYYCTRITTDADSSGLFHYWGQGTLVTVSS VL: EIVLTQSPSTLSASVGDRVTITCRASQNIYTWLAWYQRKPGKAPKVLIYKASSLESGVPSRFSGSGSGTEFTLTISSLQPDDFATYYCQQYKSAWSFGQGTKVEIK | 23.9 | 39.6 | 9.5 | 1.8 | 17.5 |
| Ab159 (antibody, V domains shown) VH: QVQLVESGGGLVKPGGSLRLSCAASGFTFNNAWMSWVRQAPGKGLEWVGRIKSKTDGGTTDYAAPVKGRFTFSRDDSKNTLYLQMSSLKTEDTALYYCTTADYDILTGTPASPYWGQGTLVTVSS VL: DIQMTQSPSSLSASVGDRVTITCRASQSITNYLNWYQQKPGKAPKFLIYAASSLQGGVPSRFRGSGSGTDFTLTISSLQPEDFATYYCQQTYSTLWTFGQGTKVEIK | 130 | 23.3 | 5.37 | 3.69 | 11.9 |
| Ab765 (antibody, V domains shown) VH: QVQLVESGGGVVQPGRSLRLSCAASGFTFSDYAIHWVRQAPGRGLEPVALISYDGNNKYYADSVKGRFTISRDNSKNVLYLQMNSLRADDTAVYYCARDAEGGWVAALDYWGQGTLVTVSS VL: QSALTQPRSVSGSPGQSVTISCTGTSSDVGGYNYVSWYQHHPGKAPKVMIYEVSKRPSGVPDRFSGSKSGTTASLTISGLQAEDEADYYCCSYAGTYPYVFGTGTKVTVL | 26.9 | 11.7 | 4.5 | 14.4 | 16.6 |
| Ab188 (antibody, V domains shown) VH: EVQLVESGGGLVQPGGSLRLSCAASGFTFINYKMNWVRQAPGKGLEWVSYISSGSDAIYYADSVKGRFTISRDNAKNSLYLQMNSLRDEDTALYYCARGGGYNYGECMDVWGQGTTVTVSS VL: not shown | 139 | 171 | 17.9 |  | 248 |
| Ab326 (antibody, V domains shown) VH: EVQLVESGGGVVQPGRSLRLSCAASGFTFSHYPMHWVRQAPGRGLEWVAVISYDGSNQHYVDSVKGRFTISRDNSKNTLYLQMNSLRAEDTAVYFCASLITMIRGVPDYWGQGTLVTVSS VL: DIQMTQSPSSLSASVGDRVTITCRASQSISNYLNWYQQKPGKAPNLLIFAASSLQSGVPSRFSGSGSGTEFTLTISSLQPEDFAAYYCLQTYSTPRTFGQGTRLEIK | 18.4 |  |  |  | 49.3 |
| Ab864 (antibody, V domains shown) VH: EVQLVESGGGLVQPGRSLRLSCAASGFTFDDYAMHWVRQVPGKGLEWVSGISWNKGNIDYADSVKGRFTISRDNAKNSLYLQMNSLRPEDTGLYYCAKDCHYDSPGYFPNCLHSWGQGTLVTVSS VL: EIVMTQSPSSLSASVGDRVTITCRASQGINTYLAWYQQKPGKAPKLLIYTASTLQSGVPSRFSGSGSGTDFTLTISSLQPEDFATYYCQQVHSYPLTFGGGTKVEIK | 17.2 | 23.4 | 4.4 |  | 9.8 |
| Ab712 (antibody, V domains shown) VH: QVQLVQSGSELKKPGASVKISCKASGYTFINHAINWVRQAPGQGLEWMGWINTNTGNPTYAPGFTGRFVFSLDTSVSTAYLQISSLKAEDTAVYYCARIPIRDYDYDGSGYYYFLDYWGQGTLVTVSS VL: SYELTQDPAVSVALGQTVRITCQGDSLRSSSASWYQQKPGQAPVLVIYGKTNRPSGIPDRFSGSSSGNTASLTITGAQAEDEADYYCNSRDNSGNHPVVFGGGTKLTVL | 79.9 | 16.4 | 7.7 | 2.2 | 103 |
| Ab803 (antibody, V domains shown) VH: EVQLVESGGGLVQPGRSLRVSCAASGFTFDDYAMHWVRQTPRKGLEWVAGISRNSAAIAYADSVKGRFTISRDNAKNSVFLQMNGLRADDTALYYCVKSPRYGWGSPDYSFDFWGRGTLVTVSS VL: DIQLTQSPSSLSASVGDRVTITCRASQNIGTYLNWYQQEPGKAPKLLIYAASSLQSGVPSRFSGSGSGTDFTLTISSLQPEDFATYCCQQSFTTPLTFGQGTKVEIK | 63.9 | 144 | 10.4 | 10.6 | 402 |
| Ab496 (antibody, V domains shown) VH: EVQLVQSGPEVKKPGTSVKVSCKASGFIFTNSAVQWVRQARGQRLEWIGWIVVGSGNPNYAQKFQERVTITRDRSTSTAYMELSSLTSEDTAVYYCAAFPYYYDNSGSGPWGQGTLVTVSS VL: DIQLTQSPSSLSASVGDRVTITCQASQDIRNNLNWYQQIPGKAPKLLIYDASNLETGVPSRFSGSASGTDFTFTISSLQPEDVATYYCQQYANLPPFTFGPGTKVDIK | 9.84 | 50.6 |  |  | 16.9 |
| Ab709TK (antibody, V domains shown) VH: QVQLVESGGGVVQPGKSLRLSCAASGFTFSSYAMHWVRLAPGKGLEWVAVISPDGKNKYYVDSVKGRSTISRDNSKNTLYLLMNSLRAEDTAVYYCATTQSLWFGQFYYIYGMDVWGQGTTVTVSS VL: QSVLTQPHSVSESPGKTITISCTGSSGSIASNYVQWYQQRPGSAPTTVIYEDTERPSGVPDRFSGSIDSSSNSASLTISGLKTEDEADYYCQSYDSNNVVFGGGTKLTVL | 58.6 | 172 | 5.8 | 3.3 | 236 |
| Ab847 (antibody, V domains shown) VH: EVQLVQSGAEVKKPGASVKVSCKASGYTFTSYDIIWVRQATGQGLEWMGWMDPSRGTTGYAQTFQGRVTMTRDTSISTAYLELNSLTSEDTAVYYCVAHIVVLDRWFDPWGQGTLVTVSS VL: DIVMTQSPSSLSASVGDRVTITCQASQDIGNFLNWCQQKPGQAPKVLIYGASNLETGVPSRFSGSGSGTDFTFTISSLQPEDIATYYCQHYDNFPPRFTFGQGTKLDIK | 42.2 | 54.8 | 10.3 | 50.2 | 82.1 |
| Ab830 (antibody, V domains shown) VH: QVQLVQSGAEVKKPGSSVKVSCKTSGGTFTNYTISWVRQAPGQGLEWMGRIIPIFDIVNYAQKFQGRVTITADKSTSTTYMELSSLRSEDTAVYYCARDGVLYDTSGYLYDAFDIWGQGTMVTVSS VL: DIQMTQSPSSLSASVGDRVTITCRASQGINNYLAWFQQKPGKAPKSLIYAASSLQSGVPPKFSGSGSGTDFTLTISSLQPEDFATYYCLHYNSYPWTFGQGTKVEIK | 55.4 | 4.2 | 56.9 | 1.1 | 37.4 |
| Ab354 (antibody, V domains shown) VH: QVQLVQSGAEVKKPGASVTVSCKASGFLFTGYYMHWVRQAPGQGLEWMGWINPNSGASNYTRKFQGRVTMTRDTSISATYMKLSRLTSDDTAVYYCARDLAFSMVRGALDYWGQGTLVTVSS VL: QLVLTQPPSASGSPGQSVTISCTGTSSDVGGYNYVSWYQHHPGKAPKLMIYEVSKRPSGVPDRFSGSKSGNTASLTVSGLQAEDEADYYCNSYAGNNNWVFGTGTKVTVL | 71.5 | 277 |  |  | 93.7 |
| Ab863 (antibody, V domains shown) VH: EVQLVQSGAEVKKPGASVKVSCQASGYTFITYYMHWVRQAPGQGLEWMGIINPDGGSISYAQKFQGRVTMTRDTSTSTVYMELSSLRSEDTAVYYCARGLSPTFSSSWFDNWGLGTLVTVSS VL: DVVMTQSPATLSVSPGERATLSCRASQSVSSNLAWYQQKPGQAPRLLIYGASTRDTGIPARFSGSGSGTEFTLTISSLQSEDFAVYFCQQYKNWLLTFGGGTKVEIK |  |  |  |  | 30.1 |
